In patent US20200352995A1:

Tests used:
[1] = target: OX40 (CD134) on BCMA-specific CTL (human) (UniProt P43489); experiment: cell-based or functional assay
[2] = target: LAG3 (CD223) on BCMA-specific CTL (human) (UniProt P18627); experiment: cell-based or functional assay
LAG3 (CD223) on BCMA-specific CTL (human), sequence (P18627 23-525): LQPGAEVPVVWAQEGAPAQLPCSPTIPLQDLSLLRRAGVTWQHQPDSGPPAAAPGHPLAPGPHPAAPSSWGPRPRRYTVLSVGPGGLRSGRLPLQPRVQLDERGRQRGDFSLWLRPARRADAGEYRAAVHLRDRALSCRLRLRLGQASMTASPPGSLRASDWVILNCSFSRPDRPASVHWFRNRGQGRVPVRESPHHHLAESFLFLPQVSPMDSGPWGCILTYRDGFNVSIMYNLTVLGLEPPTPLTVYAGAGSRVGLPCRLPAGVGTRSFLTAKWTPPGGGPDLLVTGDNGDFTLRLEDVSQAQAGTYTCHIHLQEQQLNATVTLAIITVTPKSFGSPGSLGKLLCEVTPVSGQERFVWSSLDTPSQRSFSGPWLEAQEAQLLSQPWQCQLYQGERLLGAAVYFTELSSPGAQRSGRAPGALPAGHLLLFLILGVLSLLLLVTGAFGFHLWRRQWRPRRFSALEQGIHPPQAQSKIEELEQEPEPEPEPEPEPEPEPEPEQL

OX40 (CD134) on BCMA-specific CTL (human), sequence (P43489 29-277): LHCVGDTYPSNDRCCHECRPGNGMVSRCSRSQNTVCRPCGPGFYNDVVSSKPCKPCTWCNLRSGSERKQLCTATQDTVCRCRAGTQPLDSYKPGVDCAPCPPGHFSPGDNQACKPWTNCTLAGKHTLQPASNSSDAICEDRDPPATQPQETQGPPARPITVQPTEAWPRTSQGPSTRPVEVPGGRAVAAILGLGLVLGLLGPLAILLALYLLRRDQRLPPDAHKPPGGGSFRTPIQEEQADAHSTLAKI

Clinical grade mAb to OX40 (Bristol-Myers Squibb) (antibody)
cytotoxic activity (CD107a degranulation) by memory CTL against HLA-A2+ McCAR MM cells [1]: 20% | cytotoxic activity (CD107a degranulation) by memory CTL against HLA-A2+ U266 MM cells [1]: 39.5%

Clinical grade mAb to LAG3 (Bristol-Myers Squibb) (antibody)
cytotoxic activity (CD107a degranulation) by memory CTL against HLA-A2+ McCAR MM cells [2]: 14.5% | cytotoxic activity (CD107a degranulation) by memory CTL against HLA-A2+ U266 MM cells [2]: 35.8%
